# Starred links: 1 amine or outer side, 2 acyl side, 3 side chain; linkers in the order of their positions; H or OH if unused. Non-standard residues stand in square brackets, D forms with d. Groups on a side chain read outwards from the residue. No end group written: not given here. *: point of attachment. Trp(5-Br) = N[C@@H](Cc1c[nH]c2ccc(Br)cc12)C(=O)O; C20 diacid = O=C(O)CCCCCCCCCCCCCCCCCCC(=O)*; Bip = N[C@@H](Cc1ccc(-c2ccccc2)cc1)C(=O)O; C18 diacid = O=C(O)CCCCCCCCCCCCCCCCC(=O)*; γGlu = O=C(O)[C@H](CCC(=O)[*:2])N[*:1]; αMeF = C[C@](N)(Cc1ccccc1)C(=O)O; AEEA = NCCOCCOCC(=O)O; Aib = CC(C)(N)C(=O)O
# B1: Peptide 431 (peptide)
# peptide: H[Aib]QGTFTSDVSK[αMeF]LDTK([AEEA-AEEA-γGlu-γGlu-C18 diacid])RAQDFVAWLEA[Aib]G-NH2
# modifications: N-terminus assumed
# SMILES: CC(C)C[C@H](NC(=O)[C@H](Cc1c[nH]c2ccccc12)NC(=O)[C@H](C)NC(=O)[C@@H](NC(=O)[C@H](Cc1ccccc1)NC(=O)[C@H](CC(=O)O)NC(=O)[C@H](CCC(N)=O)NC(=O)[C@H](C)NC(=O)[C@H](CCCNC(=N)N)NC(=O)[C@H](CCCCNC(=O)COCCOCCNC(=O)COCCOCCNC(=O)CC[C@H](NC(=O)CC[C@H](NC(=O)CCCCCCCCCCCCCCCCC(=O)O)C(=O)O)C(=O)O)NC(=O)[C@@H](NC(=O)[C@H](CC(=O)O)NC(=O)[C@H](CC(C)C)NC(=O)[C@](C)(Cc1ccccc1)NC(=O)[C@H](CCCCN)NC(=O)[C@H](CO)NC(=O)[C@@H](NC(=O)[C@H](CC(=O)O)NC(=O)[C@H](CO)NC(=O)[C@@H](NC(=O)[C@H](Cc1ccccc1)NC(=O)[C@@H](NC(=O)CNC(=O)[C@H](CCC(N)=O)NC(=O)C(C)(C)NC(=O)[C@@H](N)Cc1c[nH]cn1)[C@@H](C)O)[C@@H](C)O)C(C)C)[C@@H](C)O)C(C)C)C(=O)N[C@@H](CCC(=O)O)C(=O)N[C@@H](C)C(=O)NC(C)(C)C(=O)NCC(N)=O
# B2: Peptide 432 (peptide)
# peptide: H[Aib]QGTFTSDVSK[αMeF]LDSK([AEEA-AEEA-γGlu-C18 diacid])RAQDFVR[Bip]LL[Aib]E-OH
# modifications: N-terminus assumed
# SMILES: CC(C)C[C@H](NC(=O)[C@H](Cc1ccc(-c2ccccc2)cc1)NC(=O)[C@H](CCCNC(=N)N)NC(=O)[C@@H](NC(=O)[C@H](Cc1ccccc1)NC(=O)[C@H](CC(=O)O)NC(=O)[C@H](CCC(N)=O)NC(=O)[C@H](C)NC(=O)[C@H](CCCNC(=N)N)NC(=O)[C@H](CCCCNC(=O)COCCOCCNC(=O)COCCOCCNC(=O)CC[C@H](NC(=O)CCCCCCCCCCCCCCCCC(=O)O)C(=O)O)NC(=O)[C@H](CO)NC(=O)[C@H](CC(=O)O)NC(=O)[C@H](CC(C)C)NC(=O)[C@](C)(Cc1ccccc1)NC(=O)[C@H](CCCCN)NC(=O)[C@H](CO)NC(=O)[C@@H](NC(=O)[C@H](CC(=O)O)NC(=O)[C@H](CO)NC(=O)[C@@H](NC(=O)[C@H](Cc1ccccc1)NC(=O)[C@@H](NC(=O)CNC(=O)[C@H](CCC(N)=O)NC(=O)C(C)(C)NC(=O)[C@@H](N)Cc1c[nH]cn1)[C@@H](C)O)[C@@H](C)O)C(C)C)C(C)C)C(=O)N[C@@H](CC(C)C)C(=O)NC(C)(C)C(=O)N[C@@H](CCC(=O)O)C(=O)O
# B3: Peptide 434 (peptide)
# peptide: H[Aib]QGTFTSDVSK[αMeF]LDSK([AEEA-AEEA-γGlu-C18 diacid])RAQDFVR[Trp(5-Br)]LL[Aib]E-OH
# modifications: N-terminus assumed
# SMILES: CC(C)C[C@H](NC(=O)[C@H](Cc1c[nH]c2ccc(Br)cc12)NC(=O)[C@H](CCCNC(=N)N)NC(=O)[C@@H](NC(=O)[C@H](Cc1ccccc1)NC(=O)[C@H](CC(=O)O)NC(=O)[C@H](CCC(N)=O)NC(=O)[C@H](C)NC(=O)[C@H](CCCNC(=N)N)NC(=O)[C@H](CCCCNC(=O)COCCOCCNC(=O)COCCOCCNC(=O)CC[C@H](NC(=O)CCCCCCCCCCCCCCCCC(=O)O)C(=O)O)NC(=O)[C@H](CO)NC(=O)[C@H](CC(=O)O)NC(=O)[C@H](CC(C)C)NC(=O)[C@](C)(Cc1ccccc1)NC(=O)[C@H](CCCCN)NC(=O)[C@H](CO)NC(=O)[C@@H](NC(=O)[C@H](CC(=O)O)NC(=O)[C@H](CO)NC(=O)[C@@H](NC(=O)[C@H](Cc1ccccc1)NC(=O)[C@@H](NC(=O)CNC(=O)[C@H](CCC(N)=O)NC(=O)C(C)(C)NC(=O)[C@@H](N)Cc1c[nH]cn1)[C@@H](C)O)[C@@H](C)O)C(C)C)C(C)C)C(=O)N[C@@H](CC(C)C)C(=O)NC(C)(C)C(=O)N[C@@H](CCC(=O)O)C(=O)O
# B4: Peptide 436 (peptide)
# peptide: H[Aib]QGTFTSDVSK[αMeF]LDRK([AEEA-AEEA-γGlu-C18 diacid])RAQDFVRWLV[Aib]E-NH2
# modifications: N-terminus assumed
# SMILES: CC(C)C[C@H](NC(=O)[C@H](Cc1c[nH]c2ccccc12)NC(=O)[C@H](CCCNC(=N)N)NC(=O)[C@@H](NC(=O)[C@H](Cc1ccccc1)NC(=O)[C@H](CC(=O)O)NC(=O)[C@H](CCC(N)=O)NC(=O)[C@H](C)NC(=O)[C@H](CCCNC(=N)N)NC(=O)[C@H](CCCCNC(=O)COCCOCCNC(=O)COCCOCCNC(=O)CC[C@H](NC(=O)CCCCCCCCCCCCCCCCC(=O)O)C(=O)O)NC(=O)[C@H](CCCNC(=N)N)NC(=O)[C@H](CC(=O)O)NC(=O)[C@H](CC(C)C)NC(=O)[C@](C)(Cc1ccccc1)NC(=O)[C@H](CCCCN)NC(=O)[C@H](CO)NC(=O)[C@@H](NC(=O)[C@H](CC(=O)O)NC(=O)[C@H](CO)NC(=O)[C@@H](NC(=O)[C@H](Cc1ccccc1)NC(=O)[C@@H](NC(=O)CNC(=O)[C@H](CCC(N)=O)NC(=O)C(C)(C)NC(=O)[C@@H](N)Cc1c[nH]cn1)[C@@H](C)O)[C@@H](C)O)C(C)C)C(C)C)C(=O)N[C@H](C(=O)NC(C)(C)C(=O)N[C@@H](CCC(=O)O)C(N)=O)C(C)C
# B5: Peptide 437 (peptide)
# peptide: H[Aib]QGTFTSDVSK[αMeF]LDRK([AEEA-AEEA-γGlu-C20 diacid])RAQDFVRWLV[Aib]E-NH2
# modifications: N-terminus assumed
# SMILES: CC(C)C[C@H](NC(=O)[C@H](Cc1c[nH]c2ccccc12)NC(=O)[C@H](CCCNC(=N)N)NC(=O)[C@@H](NC(=O)[C@H](Cc1ccccc1)NC(=O)[C@H](CC(=O)O)NC(=O)[C@H](CCC(N)=O)NC(=O)[C@H](C)NC(=O)[C@H](CCCNC(=N)N)NC(=O)[C@H](CCCCNC(=O)COCCOCCNC(=O)COCCOCCNC(=O)CC[C@H](NC(=O)CCCCCCCCCCCCCCCCCCC(=O)O)C(=O)O)NC(=O)[C@H](CCCNC(=N)N)NC(=O)[C@H](CC(=O)O)NC(=O)[C@H](CC(C)C)NC(=O)[C@](C)(Cc1ccccc1)NC(=O)[C@H](CCCCN)NC(=O)[C@H](CO)NC(=O)[C@@H](NC(=O)[C@H](CC(=O)O)NC(=O)[C@H](CO)NC(=O)[C@@H](NC(=O)[C@H](Cc1ccccc1)NC(=O)[C@@H](NC(=O)CNC(=O)[C@H](CCC(N)=O)NC(=O)C(C)(C)NC(=O)[C@@H](N)Cc1c[nH]cn1)[C@@H](C)O)[C@@H](C)O)C(C)C)C(C)C)C(=O)N[C@H](C(=O)NC(C)(C)C(=O)N[C@@H](CCC(=O)O)C(N)=O)C(C)C
# B6: Peptide 438 (peptide)
# peptide: H[Aib]QGTFTSDVSK[αMeF]LDKK([AEEA-AEEA-γGlu-C18 diacid])RAQDFVRWLEA[Aib]G-NH2
# modifications: N-terminus assumed
# SMILES: CC(C)C[C@H](NC(=O)[C@H](Cc1c[nH]c2ccccc12)NC(=O)[C@H](CCCNC(=N)N)NC(=O)[C@@H](NC(=O)[C@H](Cc1ccccc1)NC(=O)[C@H](CC(=O)O)NC(=O)[C@H](CCC(N)=O)NC(=O)[C@H](C)NC(=O)[C@H](CCCNC(=N)N)NC(=O)[C@H](CCCCNC(=O)COCCOCCNC(=O)COCCOCCNC(=O)CC[C@H](NC(=O)CCCCCCCCCCCCCCCCC(=O)O)C(=O)O)NC(=O)[C@H](CCCCN)NC(=O)[C@H](CC(=O)O)NC(=O)[C@H](CC(C)C)NC(=O)[C@](C)(Cc1ccccc1)NC(=O)[C@H](CCCCN)NC(=O)[C@H](CO)NC(=O)[C@@H](NC(=O)[C@H](CC(=O)O)NC(=O)[C@H](CO)NC(=O)[C@@H](NC(=O)[C@H](Cc1ccccc1)NC(=O)[C@@H](NC(=O)CNC(=O)[C@H](CCC(N)=O)NC(=O)C(C)(C)NC(=O)[C@@H](N)Cc1c[nH]cn1)[C@@H](C)O)[C@@H](C)O)C(C)C)C(C)C)C(=O)N[C@@H](CCC(=O)O)C(=O)N[C@@H](C)C(=O)NC(C)(C)C(=O)NCC(N)=O
# B7: Peptide 439 (peptide)
# peptide: H[Aib]QGTFTSDVSK[αMeF]LDRK([AEEA-AEEA-γGlu-C18 diacid])RAQDFVRWLL[Aib]E-NH2
# modifications: N-terminus assumed
# SMILES: CC(C)C[C@H](NC(=O)[C@H](Cc1c[nH]c2ccccc12)NC(=O)[C@H](CCCNC(=N)N)NC(=O)[C@@H](NC(=O)[C@H](Cc1ccccc1)NC(=O)[C@H](CC(=O)O)NC(=O)[C@H](CCC(N)=O)NC(=O)[C@H](C)NC(=O)[C@H](CCCNC(=N)N)NC(=O)[C@H](CCCCNC(=O)COCCOCCNC(=O)COCCOCCNC(=O)CC[C@H](NC(=O)CCCCCCCCCCCCCCCCC(=O)O)C(=O)O)NC(=O)[C@H](CCCNC(=N)N)NC(=O)[C@H](CC(=O)O)NC(=O)[C@H](CC(C)C)NC(=O)[C@](C)(Cc1ccccc1)NC(=O)[C@H](CCCCN)NC(=O)[C@H](CO)NC(=O)[C@@H](NC(=O)[C@H](CC(=O)O)NC(=O)[C@H](CO)NC(=O)[C@@H](NC(=O)[C@H](Cc1ccccc1)NC(=O)[C@@H](NC(=O)CNC(=O)[C@H](CCC(N)=O)NC(=O)C(C)(C)NC(=O)[C@@H](N)Cc1c[nH]cn1)[C@@H](C)O)[C@@H](C)O)C(C)C)C(C)C)C(=O)N[C@@H](CC(C)C)C(=O)NC(C)(C)C(=O)N[C@@H](CCC(=O)O)C(N)=O
# Molecular target: human GLP-1 receptor (hGLP-1R) (human, UniProt P43220 24-463)
# Experiment: cell-based or functional assay
row,Binder,hGLP-1R EC50 (pM)
1,B1,44.6 pM
2,B2,1380 pM
3,B3,153 pM
4,B4,7.43 pM
5,B5,26.9 pM
6,B6,17.9 pM
7,B7,30.6 pM

# Molecular target: human glucagon receptor (hGCGR) (human, UniProt P47871 26-477)
# Experiment: cell-based or functional assay
# Sequence of human glucagon receptor (hGCGR) (P47871 26-477): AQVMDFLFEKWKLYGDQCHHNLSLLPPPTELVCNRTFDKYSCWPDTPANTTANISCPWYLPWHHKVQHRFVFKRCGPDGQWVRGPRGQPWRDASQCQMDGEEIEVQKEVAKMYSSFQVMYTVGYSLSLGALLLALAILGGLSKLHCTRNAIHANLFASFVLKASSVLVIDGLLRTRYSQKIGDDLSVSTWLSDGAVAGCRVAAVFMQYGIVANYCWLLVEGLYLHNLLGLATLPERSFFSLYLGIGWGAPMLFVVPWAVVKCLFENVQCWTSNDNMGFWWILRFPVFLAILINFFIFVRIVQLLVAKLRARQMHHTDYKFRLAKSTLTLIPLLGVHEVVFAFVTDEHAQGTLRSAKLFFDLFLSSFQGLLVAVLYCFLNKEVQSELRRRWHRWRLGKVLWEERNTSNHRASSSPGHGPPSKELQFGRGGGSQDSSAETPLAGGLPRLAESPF
row,Binder,hGluc-R EC50 (pM)
1,B1,194 pM
2,B2,1160 pM
3,B3,294 pM
4,B4,68.8 pM
5,B5,96.9 pM
6,B6,68.9 pM
7,B7,57.7 pM
